Measurements taken from patent US8119117.

Target: CD40 receptor on dendritic cells (mouse) (UniProt P27512)
Assay: cell-based or functional assay

UniProt P27512, sequence (P27512 20-289): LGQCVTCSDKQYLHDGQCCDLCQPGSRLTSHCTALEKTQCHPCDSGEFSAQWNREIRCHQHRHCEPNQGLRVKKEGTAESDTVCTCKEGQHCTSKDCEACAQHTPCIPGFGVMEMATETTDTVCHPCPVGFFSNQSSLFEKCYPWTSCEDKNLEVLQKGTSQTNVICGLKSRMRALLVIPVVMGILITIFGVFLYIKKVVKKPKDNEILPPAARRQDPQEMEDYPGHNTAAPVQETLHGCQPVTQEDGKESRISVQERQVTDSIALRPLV

“E7-ΔCtΔTmCD40L fusion protein (secreted; HPV type 16 E7, 10 amino acid linker, murine CD40 ligand residues 52-260) (from UniProt P03129 1-98; P27548 52-260)” showed an IFN-γ released by DCs exposed to the vector (ELISA), first 24 hours of 335 pg, an IL-12 produced by DCs exposed to the vector (ELISA), 24 h (pg/2×10^5 cell/ml/24 h) of 18 and an IL-12 produced by DCs exposed to the vector (ELISA), 48 h (pg/2×10^5 cell/ml/48 h) of 88.
